Measurements taken from paper PMC10776578, “Epstein-Barr virus-driven B cell lymphoma mediated by a direct LMP1-TRAF6 complex” (Nature Communications, 2024).

Legend:
[1] = test system: LMP1-CL 37 B cell lymphoma; assay: CRISPR/Cas9 knockout, cell survival (selection score) of lymphoma LMP1-CL 37; type: cell-based, mouse; design: key: Venus-neg d7 / mCherry+ d2, normalized to nontargeting gRNA (=1); settings: for cell survival (selection score), Figure 6 b: CRISPR guides
Source text: (§1) The mouse LMP1 B cell tumors LMP1-CL 37 and 40 were derived from two B cell tumors arising in Rag2^KO;cγ^KO mice inoculated with primary tumor cells from Rag2^KO;cγ^KO mice reconstituted with fetal liver hematopoietic stem cells and progenitor cells from CD19-cre;R26-LMP1^STOPfl;CD3ε^KO animals as described. In these cells, a Venus expression cassette was targeted into the Rosa26 locus by CRISPR/CAS9 as described. Venus-LMP1 B cells were electroporated (Nucleofector, Lonza, human B cell program) with 1 µg of each of two pX330-mcherry-CAS9 vectors[83] encoding varying guide RNAs. In each approach, the first guide RNA (gRNA) targeted Venus while the second gRNA targeted either a nontargeting control sequence not present in the genome, or the gene of interest (GOI). The following gRNA sequences were used: nontargeting (NT) […], ICAM1 […], LMP1 #1 […], LMP1 #2 CCAAAACAGTAGCGCCAAG, LMP1 #3 AATCATCGGTAGCTTGTTG, TRAF6 #1 […], TRAF6 #2 […], TRAF6 #3 […]. The electroporation efficiency, measured as the frequency of mCherry-positive cells on day two after electroporation, was determined by flow cytometry with a Becton Dickinson LSRFortessa flow cytometer. On day seven, the loss of Venus was measured by flow cytometry as a surrogate marker for the number of surviving targeted cells. In the case of a lethal coexpressed GOI gRNA, Venus-negative cells will not survive, and their relative numbers are reduced. The given selection score is defined as the frequency of Venus-negative cells on day seven over the frequency of mCherry-positive cells on day two, normalized to the ratio observed with the nontargeting control gRNA. FACS data were analyzed by FlowJo software. The gating strategy is exemplified in Supplementary Fig. 5b. Animal housing and experiments to generate LMP1 lymphomas were approved by the Landesamt für Gesundheit und Soziales Berlin (G0049/15, G0374/13, and G0135/11). Mice were kept in groups in individually ventilated cages with a 12 h dark-light cycle at 22 ± 2 °C and 55 ± 5% relative humidity. They had access to food and water ad libitum, as well as to nest building material and shelter.

[2] = test system: LMP1-CL 40 B cell lymphoma; assay: CRISPR/Cas9 knockout, cell survival (selection score) of lymphoma LMP1-CL 40; type: cell-based, mouse; design: key: Venus-neg d7 / mCherry+ d2, normalized to nontargeting gRNA (=1); settings: for cell survival (selection score), Figure 6 b: CRISPR guides
Source text: as §1

HA-LMP1 [3] = assay: Coimmunoprecipitation of HA-LMP1 with Flag-TRAF6 mutants in HEK293 cells; type: cell-based, Epstein-Barr virus
Procedure: Immunoblotting was essentially performed as described. Proteins were detected on nitrocellulose membranes (Bio-Rad, #1620115) using the following primary antibodies: α−6*His-tag (clone 4A4 or 2F12, source: antibody facility of the Helmholtz Center Munich, hybridoma supernatants were used at a 1:10 dilution)[75], α-TRAF6 (H-274, Santa Cruz Biotech., #sc-7221, used at 1:1000), α-HA-tag (12CA5, Sigma-Aldrich, #11583816001, used at 0.4 µg per mL), α-IκBα (C-21, Santa Cruz Biotech., #sc-371, used at 1:500) and α-Tubulin (B-5-1-2, Santa Cruz Biotech., #sc-23948, used at 1:500). Horseradish peroxidase-coupled antibodies were used as secondary antibodies (Cell Signalling Technology, #7074 or #7076, respectively, both used at 1:5000). ECL signals were captured on X-ray films (Agfa Healthcare) and quantified by densitometry using the ImageJ software. Uncropped scans of immunoblots indicating molecular weights are provided in Supplementary Fig. 6.
HEK293 cells were transfected with 1 µg of pRK5-Flag TRAF6 plasmids, 1 µg of pCMV-HA-LMP1 and 6 µg of pRK5 per 10 cm cell culture dish using PolyFect Transfection Reagent (Qiagen, #301107) in RPMI without supplements. Cells were incubated with the plasmid transfection mix for 4 h before the medium was changed to RPMI full medium. After 24 h, the cells were lysed in NP40-lysis buffer (50 mM HEPES pH 7.5, 150 mM NaCl, 5 mM EDTA, 0.5 mM sodium orthovanadate, 0.5 mM PMSF, 0.5 mM sodium molybdate, and cOmplete protease inhibitor cocktail). Lysates were cleared by centrifugation at 15000 x g for 10 min at 4 °C, and the protein concentration was adjusted to 1 mg per mL. For immunoprecipitation 4 mL of lysate was incubated with the α-Flag antibody 6F7 (Sigma-Aldrich, #F3165; covalently coupled to protein-G-Sepharose) for 1 h at 4 °C. The beads were pelleted at 15000 x g for 30 seconds at 4 °C, washed twice with NP40-lysis buffer, and analyzed by immunoblotting.

HA-LMP1 [4] = assay: Confocal immunofluorescence colocalization of Flag-TRAF6 with HA-LMP1 in HeLa cells; type: cell-based, Epstein-Barr virus
Procedure: HeLa cells were seeded onto cover glasses (Thermo Scientific, Menzel) in 24-well plates one day before transfection. Cells were transfected at 50–60% confluency with 50 ng of pCMV-HA-LMP1 plasmids and 100 ng of pRK5-Flag-TRAF6 plasmids, adjusted to a total of 500 ng DNA per sample with pRK5 empty vector, using Lipofectamine 2000 (Thermo Fisher Scientific) according to the manufacturer’s instructions. At 24 h posttransfection, cells were washed once with PBS and fixed with 4% paraformaldehyde (Sigma-Aldrich) for 20 min at RT, followed by permeabilization with 0.3% (v/v) Triton X-100 and blocking with 5% (v/v) FBS in PBS for 1 h at RT. For immunostaining, the cells were incubated overnight with the primary antibodies α-HA (1:1000, clone 16B12, BioLegend) and α-DYKDDDDK (1:1000, clone L5, BioLegend) at 4 °C. The secondary antibodies goat α-mouse Alexa 488 (1:500, cross-adsorbed, Invitrogen, #A-11029) and goat α-rat Alexa 555 (1:500, cross-adsorbed, Invitrogen, #A-21434) were added for 1.5 h at RT. Microscope slides were sealed with cover glasses using Mowiol mounting medium (Sigma-Aldrich). Nuclei were stained with Hoechst 33258 (Sigma-Aldrich). All samples were imaged using a Leica TCS SP5 confocal microscope with 405 nm, 488 nm, 543 nm or 633 nm laser lines, scanning each channel separately under image capture conditions that eliminated channel overlap. For each single experiment, 10 transfected cells positive for both constructs were randomly captured as single-cell images for quantification. The resulting images were then analyzed using the Leica TCS SP5 colocalization analyses application (LAS AF Version 2.7.3.9723). Analysis was performed with default parameters.

GST-LMP1_181-386 = assay: AlphaScreen PPI, TRAF6 mutants binding to LMP1; design: species or system Epstein-Barr virus; TRAF6 binding to LMP1 (AlphaScreen), mean: unit not given here
Procedure: (§2) Fig. 2 LMP1 binds to the receptor-interacting surface of TRAF6. a Mutations within the receptor-interacting surface of TRAF6 affect binding to LMP1. The TRAF6 mutants R392A, K469A, F471A, and Y473A were tested LMP1 in AlphaScreen PPI experiments with GST-LMP1_181-386. Data are mean values ± SD of three independent experiments. Statistics: one-way ANOVA. b TRAF6 R392A differentiates between CD40 and LMP1/RANK. AlphaScreen PPI experiments with GST-CD40_216-277. Data are mean values ± SD of three independent experiments. […] AlphaScreen PPI experiments with GST-RANK314-355. Data are mean values ± SD of four independent experiments. Statistics: one-way ANOVA. d TRAF6 mutants that fail to interact with LMP1 in PPI assays are also unable to bind cellular LMP1. HEK293 cells were co-transfected with HA-LMP1 and the indicated Flag-TRAF6 mutants. Flag-TRAF6 was immunoprecipitated (IP) via its Flag-tag and coprecipitated HA-LMP1 was detected on immunoblots by an α-HA antibody. Uncropped blots in Supplementary Fig. 6b. For statistical analysis LMP1 signals were digitalized and quantified (graph). Data are mean values ± SD of three independent experiments. […] TRAF6 recruitment is dependent on amino acids 371 − 386 of LMP1 (small panel). Confocal microscopy images show representative cells of three independent experiments. Quantitative data are mean values ± SD of ten randomly selected cells per transfection of one representative experiment (graph). Scale bars: 10 µm. Statistics: one-way ANOVA. p-values: *p ≤ 0.05, **p ≤ 0.01, ***p ≤ 0.001, ****p ≤ 0.0001. Source data and exact p-values in the Source Data file.
(§3) AlphaScreen experiments were performed in 96- or 384-well plates (Perkin Elmer, OptiPlate). In both assay formats, His-TRAF and GST-LMP1, GST-CD40, or GST-RANK proteins were incubated together in 40 µL of PBS (protein concentrations were calculated to the final reaction volume of 60 µL) supplemented with 0.5% BSA (Sigma, #A7030) and 0.1% Tween-20 (AppliChem, #A4974), for 1 h at room temperature (RT). If not indicated otherwise, standard protein concentrations were 300 nM for His-TRAF proteins and 100 nM for GST-LMP1 proteins. Ni-NTA-acceptor (Perkin Elmer, #6760619 C) and GST-acceptor (Perkin Elmer, # 6765300) beads were added each to a final concentration of 1–4 µg per mL in a final reaction volume of 60 µL and incubated for 1 h at RT in the dark. AlphaScreen PPI signals were measured in a CLARIOstar reader (BMG Labtech GmbH).

GST-CD40_216-277 = assay: AlphaScreen PPI, TRAF6 mutants binding to CD40; design: species or system human; TRAF6 binding to CD40 (AlphaScreen), mean: unit not given here
Procedure: as §2, §3

GTTTGAGCTGAGCGAGATCG (expressed or natural sequence) [ICAM1 gRNA]
cell survival (selection score), Figure 6 b ([1]; replicate 1): 1.189
cell survival (selection score), Figure 6 b ([1]; replicate 2): 1.169
cell survival (selection score), Figure 6 b ([1]; replicate 3): 1.095
cell survival (selection score), Figure 6 b ([1]; replicate 4): 0.9472
cell survival (selection score), Figure 6 b ([1]; replicate 5): 1.162
cell survival (selection score), Figure 6 b ([1]; replicate 6): 1.151
cell survival (selection score), mean ([1]; mean (NT mean = 1), n = 9 LMP1, 10 TRAF6, 6 ICAM1): 1.119
cell survival (selection score), Figure 6 b ([2]; replicate 1): 1.006
cell survival (selection score), Figure 6 b ([2]; replicate 2): 1.221
cell survival (selection score), Figure 6 b ([2]; replicate 3): 0.6632
cell survival (selection score), Figure 6 b ([2]; replicate 4): 1.293
cell survival (selection score), Figure 6 b ([2]; replicate 5): 1.126
cell survival (selection score), mean ([2]; mean (NT mean = 1), n = 9 LMP1, 10 TRAF6, 5 ICAM1): 1.062

B1: K469A (protein, UniProt Q9Y4K3 1-522, looked up, variant K469A)
TNF receptor-associated …: MSLLNCENSCGSSQSESDCCVAMASSCSAVTKDDSVGGTASTGNLSSSFMEEIQGYDVEFDPPLESKYECPICLMALREAVQTPCGHRFCKACIIKSIRDAGHKCPVDNEILLENQLFPDNFAKREILSLMVKCPNEGCLHKMELRHLEDHQAHCEFALMDCPQCQRPFQKFHINIHILKDCPRRQVSCDNCAASMAFEDKEIHDQNCPLANVICEYCNTILIREQMPNHYDLDCPTAPIPCTFSTFGCHEKMQRNHLARHLQENTQSHMRMLAQAVHSLSVIPDSGYISEVRNFQETIHQLEGRLVRQDHQIRELTAKMETQSMYVSELKRTIRTLEDKVAEIEAQQCNGIYIWKIGNFGMHLKCQEEEKPVVIHSPGFYTGKPGYKLCMRLHLQLPTAQRCANYISLFVHTMQGEYDSHLPWPFQGTIRLTILDQSEAPVRQNHEEIMDAKPELLAFQRPTIPRNPAGFGYVTFMHLEALRQRTFIKDDTLLVRCEVSTRFDMGSLRREGFQPRSTDAGV
coprecipitated HA-LMP1 signal (densitometry), mean (HA-LMP1 [3]; HEK293, mean of n = 3): 17563327
interaction of TRAF6 mutants with LMP1 in HEK293 cells (in words) (HA-LMP1 [3]; coimmunoprecipitation): no negative effect on the interaction
colocalization with HA-LMP1 (in words) (HA-LMP1 [4]; confocal microscopy): colocalized to a high extent with HA-LMP1 clusters
colocalization of TRAF6 with LMP1, mean (HA-LMP1 [4]; mean of ten cells): 98.27
effect of TRAF6 mutation on binding to LMP1 (in words) (GST-LMP1_181-386; AlphaScreen PPI): did not affect the TRAF6 interaction with LMP1 or CD40
TRAF6 binding to LMP1 (AlphaScreen), mean (GST-LMP1_181-386; Figure 2a, mean of n = 3): 102.4
TRAF6 binding to LMP1 (AlphaScreen) (GST-LMP1_181-386; Figure 2a, relative to mean wt 100, replicate 1): 73.0
TRAF6 binding to LMP1 (AlphaScreen) (GST-LMP1_181-386; Figure 2a, replicate 2): 116.6
TRAF6 binding to LMP1 (AlphaScreen) (GST-LMP1_181-386; Figure 2a, replicate 3): 117.5
effect of TRAF6 mutation on binding to CD40 (in words) (GST-CD40_216-277; AlphaScreen PPI): did not affect the TRAF6 interaction with LMP1 or CD40
TRAF6 binding to CD40 (AlphaScreen), mean (GST-CD40_216-277; Figure 2b, mean of n = 3): 89.86
TRAF6 binding to CD40 (AlphaScreen) (GST-CD40_216-277; Figure 2b, relative to mean wt 100, replicate 1): 52.8
TRAF6 binding to CD40 (AlphaScreen) (GST-CD40_216-277; Figure 2b, replicate 2): 105.6
TRAF6 binding to CD40 (AlphaScreen) (GST-CD40_216-277; Figure 2b, replicate 3): 111.2
